The values below come from publication PMC10899789.

What all share (details): 50 mM Tris-HCl pH 7.5, 50 mM NaCl, 10 mM MgCl2; SV at 20 C, SE under same conditions (5000 rpm, 260 nm)
Data set [1] concerns the target T1, p6CΔ20 del85-104 (Bacillus subtilis phage phi29) (UniProt P03685).
T1 sequence: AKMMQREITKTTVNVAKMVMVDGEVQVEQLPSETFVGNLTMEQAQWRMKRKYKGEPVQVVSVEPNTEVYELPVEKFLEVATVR
Briefly: sedimentation velocity.

The target in data set [2] is T2, p6 wt (Bacillus subtilis phage phi29) (UniProt P03685).
T2 sequence: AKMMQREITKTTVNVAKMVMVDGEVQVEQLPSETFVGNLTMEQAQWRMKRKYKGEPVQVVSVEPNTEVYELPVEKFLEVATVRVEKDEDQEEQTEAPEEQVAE
In words: sedimentation equilibrium.

Data set [3] addresses T1, p6CΔ20 del85-104 (Bacillus subtilis phage phi29). In words: sedimentation equilibrium.

For orientation: Kd means the concentration at which binding is half-saturated. The low end stands for tighter binding, the high end for weaker binding. Consider “GCCCACATACTTTGTTGATTGGTTGTCAATCATGGCAAAAGTGCACGCTACTTTGATAACCTTTTACATGCGACACAGACGAAGCGCTAAAACGTGGGATTCTGTGTCGTTTTATGTTGTTCATTGACAAACCTATCTAGTAGGTCTATAGATTGATATATTAAGTAGTAGTTTCCCTCCCTGATCATGGTATGCCGAGGATCGACGGATTATGTCGATATTAGGAGAATGGTATCATGTGAGGGTGGGGGCTTACTTT (double strand) [L fragment (DNA-L)]”, for which the binding result in data set [1] is recorded as “binds”. In addition, the figures for the Kd in data set [2] and in data set [3] were 2.46 µM and 1.47 µM, respectively.
